Experimental data taken from the supplement of paper PMC9233669.
Variants at the floor of the assay were thinned out.

Key:
biotinyl-Trp-oxazolone = test: self-aminoacylation, catalytic enhancement (BWO) (fold over background); higher = more active; k-Seq, kA / k0A0; sequences stand for … in GGGAAUGGAUCCACAUCUACGAAUUC…UUCACUGCAGACUUGACGAAGCUG
Procedure, shortened: (§1)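 Mutagenized RNA pools (0.43 μM; 21-nt variable region) were treated with 2–1250 μM of each biotinyl-aminoacyl-oxazolone. Conditions were 50 μL HEPES/NaCl/KCl/MgCl2/CaCl2 buffer, 5% acetonitrile, pH 6.9–7.0, room temperature, 90 minutes. Catalytic enhancement, the median kA relative to the uncatalyzed rate, was derived from streptavidin capture, qPCR and Illumina sequencing.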

biotinyl-Met-oxazolone = test: self-aminoacylation, catalytic enhancement (BMO) (fold over background); higher = more active; k-Seq, kA / k0A0; sequences stand for … in GGGAAUGGAUCCACAUCUACGAAUUC…UUCACUGCAGACUUGACGAAGCUG
Procedure, shortened: as §1

biotinyl-Ile-oxazolone = test: self-aminoacylation, catalytic enhancement (BIO) (fold over background); higher = more active; k-Seq, kA / k0A0; sequences stand for … in GGGAAUGGAUCCACAUCUACGAAUUC…UUCACUGCAGACUUGACGAAGCUG
Procedure, shortened: as §1

biotinyl-Phe-oxazolone = test: self-aminoacylation, catalytic enhancement (BFO) (fold over background); higher = more active; k-Seq, kA / k0A0; sequences stand for … in GGGAAUGGAUCCACAUCUACGAAUUC…UUCACUGCAGACUUGACGAAGCUG
Procedure, shortened: as §1

biotinyl-Val-oxazolone = test: self-aminoacylation, catalytic enhancement (BVO) (fold over background); higher = more active; k-Seq, kA / k0A0; sequences stand for … in GGGAAUGGAUCCACAUCUACGAAUUC…UUCACUGCAGACUUGACGAAGCUG
Procedure, shortened: as §1

biotinyl-Leu-oxazolone = test: self-aminoacylation, catalytic enhancement (BLO) (fold over background); higher = more active; k-Seq, kA / k0A0; sequences stand for … in GGGAAUGGAUCCACAUCUACGAAUUC…UUCACUGCAGACUUGACGAAGCUG
Procedure, shortened: as §1

AUGUUUGCUAAUCGUCGCAAG [Fam3.1 aminoacylation ribozyme variant]
self-aminoacylation (biotinyl-Trp-oxazolone): 1.01
self-aminoacylation (biotinyl-Met-oxazolone): 1.13
self-aminoacylation (biotinyl-Ile-oxazolone): 1.32
self-aminoacylation (biotinyl-Phe-oxazolone): 1.59
self-aminoacylation (biotinyl-Val-oxazolone): 1.44
self-aminoacylation (biotinyl-Leu-oxazolone): 1.32

UUUUCCCUGGUCAUCGAGUGA [Fam2.1 aminoacylation ribozyme variant]
self-aminoacylation (biotinyl-Trp-oxazolone): 14.3
self-aminoacylation (biotinyl-Met-oxazolone): 11.1
self-aminoacylation (biotinyl-Ile-oxazolone): 5.39
self-aminoacylation (biotinyl-Phe-oxazolone): 16.5
self-aminoacylation (biotinyl-Val-oxazolone): 5.81
self-aminoacylation (biotinyl-Leu-oxazolone): 11.1

AUUACCCUGGUCAACGACUGA [Fam2.1 aminoacylation ribozyme variant]
self-aminoacylation (biotinyl-Trp-oxazolone): 0.514
self-aminoacylation (biotinyl-Met-oxazolone): 0.47
self-aminoacylation (biotinyl-Ile-oxazolone): 0.653
self-aminoacylation (biotinyl-Phe-oxazolone): 0.635
self-aminoacylation (biotinyl-Val-oxazolone): 0.66
self-aminoacylation (biotinyl-Leu-oxazolone): 0.523

AAUCGCCUAGGUCAUCGGGUG [Fam2.2 aminoacylation ribozyme variant]
self-aminoacylation (biotinyl-Trp-oxazolone): 10
self-aminoacylation (biotinyl-Met-oxazolone): 10.4
self-aminoacylation (biotinyl-Ile-oxazolone): 6.97
self-aminoacylation (biotinyl-Phe-oxazolone): 72.9
self-aminoacylation (biotinyl-Val-oxazolone): 8.02
self-aminoacylation (biotinyl-Leu-oxazolone): 9.78

GUACUUCAAACCAUCGGUCUG [Fam1A.1 aminoacylation ribozyme variant]
self-aminoacylation (biotinyl-Trp-oxazolone): 1.31
self-aminoacylation (biotinyl-Met-oxazolone): 1.13
self-aminoacylation (biotinyl-Ile-oxazolone): 1.22
self-aminoacylation (biotinyl-Phe-oxazolone): 2.13
self-aminoacylation (biotinyl-Val-oxazolone): 1.18
self-aminoacylation (biotinyl-Leu-oxazolone): 0.918

UUUCACCUAGGUCAUCGGGUU [Fam2.2 aminoacylation ribozyme variant]
self-aminoacylation (biotinyl-Trp-oxazolone): 7.39
self-aminoacylation (biotinyl-Met-oxazolone): 10.4
self-aminoacylation (biotinyl-Ile-oxazolone): 6.15
self-aminoacylation (biotinyl-Phe-oxazolone): 44.3
self-aminoacylation (biotinyl-Val-oxazolone): 5.7
self-aminoacylation (biotinyl-Leu-oxazolone): 12.6

AUUACCCUGGUCAUCGUCUGA [Fam2.1 aminoacylation ribozyme variant]
self-aminoacylation (biotinyl-Trp-oxazolone): 0.531
self-aminoacylation (biotinyl-Met-oxazolone): 0.842
self-aminoacylation (biotinyl-Ile-oxazolone): 0.88
self-aminoacylation (biotinyl-Phe-oxazolone): 0.374
self-aminoacylation (biotinyl-Val-oxazolone): 0.817
self-aminoacylation (biotinyl-Leu-oxazolone): 0.907

AAGUUUGGUAAUACUCGCAAG [Fam3.1 aminoacylation ribozyme variant]
self-aminoacylation (biotinyl-Trp-oxazolone): 0.719
self-aminoacylation (biotinyl-Met-oxazolone): 0.998
self-aminoacylation (biotinyl-Ile-oxazolone): 1.06
self-aminoacylation (biotinyl-Phe-oxazolone): 1.07
self-aminoacylation (biotinyl-Val-oxazolone): 1.04
self-aminoacylation (biotinyl-Leu-oxazolone): 0.673

CUACUUCGAACCAUCGGUCUG [Fam1A.1 aminoacylation ribozyme variant]
self-aminoacylation (biotinyl-Trp-oxazolone): 0.463
self-aminoacylation (biotinyl-Met-oxazolone): 0.813
self-aminoacylation (biotinyl-Ile-oxazolone): 0.723
self-aminoacylation (biotinyl-Phe-oxazolone): 0.458
self-aminoacylation (biotinyl-Val-oxazolone): 0.779
self-aminoacylation (biotinyl-Leu-oxazolone): 0.61

AUUACCGUGGUCAUCGAGUGG [Fam2.1 aminoacylation ribozyme variant]
self-aminoacylation (biotinyl-Trp-oxazolone): 1.72
self-aminoacylation (biotinyl-Met-oxazolone): 1.85
self-aminoacylation (biotinyl-Ile-oxazolone): 1.27
self-aminoacylation (biotinyl-Phe-oxazolone): 7.04
self-aminoacylation (biotinyl-Val-oxazolone): 1.33
self-aminoacylation (biotinyl-Leu-oxazolone): 1.81

CUACUUCCAACAAUCGGUGUG [Fam1A.1 aminoacylation ribozyme variant]
self-aminoacylation (biotinyl-Trp-oxazolone): 1.09
self-aminoacylation (biotinyl-Met-oxazolone): 1.06
self-aminoacylation (biotinyl-Ile-oxazolone): 0.97
self-aminoacylation (biotinyl-Phe-oxazolone): 0.789
self-aminoacylation (biotinyl-Val-oxazolone): 1.03
self-aminoacylation (biotinyl-Leu-oxazolone): 1.28

CUACUUCAACCAAUCAGUCUG [Fam1A.1 aminoacylation ribozyme variant]
self-aminoacylation (biotinyl-Trp-oxazolone): 5.54
self-aminoacylation (biotinyl-Met-oxazolone): 0.541
self-aminoacylation (biotinyl-Ile-oxazolone): 0.747
self-aminoacylation (biotinyl-Phe-oxazolone): 13.9
self-aminoacylation (biotinyl-Val-oxazolone): 0.701
self-aminoacylation (biotinyl-Leu-oxazolone): 0.794

AAGUUUGGUAAUAGUCGGAAG [Fam3.1 aminoacylation ribozyme variant]
self-aminoacylation (biotinyl-Trp-oxazolone): 1.08
self-aminoacylation (biotinyl-Met-oxazolone): 0.771
self-aminoacylation (biotinyl-Ile-oxazolone): 0.893
self-aminoacylation (biotinyl-Phe-oxazolone): 1.11
self-aminoacylation (biotinyl-Val-oxazolone): 0.815
self-aminoacylation (biotinyl-Leu-oxazolone): 0.717
